According to PMC2873218:

Target: microtubules
Assay: co-sedimentation

Chain of C. elegans KMN network containing KNL-1SD and the MIS-12SD complex (Q17635 whole entry, looked up): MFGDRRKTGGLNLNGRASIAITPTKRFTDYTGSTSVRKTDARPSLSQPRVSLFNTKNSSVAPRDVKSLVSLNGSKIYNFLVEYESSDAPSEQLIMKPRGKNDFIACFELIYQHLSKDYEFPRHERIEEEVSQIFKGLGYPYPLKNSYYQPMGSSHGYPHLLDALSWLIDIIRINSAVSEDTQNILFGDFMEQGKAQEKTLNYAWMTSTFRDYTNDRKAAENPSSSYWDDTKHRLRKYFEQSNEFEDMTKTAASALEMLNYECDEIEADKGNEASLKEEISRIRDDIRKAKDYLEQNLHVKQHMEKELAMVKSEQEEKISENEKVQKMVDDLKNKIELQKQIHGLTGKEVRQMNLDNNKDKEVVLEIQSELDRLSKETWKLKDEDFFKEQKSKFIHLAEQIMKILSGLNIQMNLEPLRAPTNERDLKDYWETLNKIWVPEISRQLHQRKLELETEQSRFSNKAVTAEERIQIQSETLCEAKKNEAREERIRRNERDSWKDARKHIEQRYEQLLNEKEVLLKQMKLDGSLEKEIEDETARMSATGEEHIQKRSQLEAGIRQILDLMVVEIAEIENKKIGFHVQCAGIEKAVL
Chain of C. elegans KMN network containing KNL-1SD and the MIS-12SD complex (P34278 whole entry, looked up): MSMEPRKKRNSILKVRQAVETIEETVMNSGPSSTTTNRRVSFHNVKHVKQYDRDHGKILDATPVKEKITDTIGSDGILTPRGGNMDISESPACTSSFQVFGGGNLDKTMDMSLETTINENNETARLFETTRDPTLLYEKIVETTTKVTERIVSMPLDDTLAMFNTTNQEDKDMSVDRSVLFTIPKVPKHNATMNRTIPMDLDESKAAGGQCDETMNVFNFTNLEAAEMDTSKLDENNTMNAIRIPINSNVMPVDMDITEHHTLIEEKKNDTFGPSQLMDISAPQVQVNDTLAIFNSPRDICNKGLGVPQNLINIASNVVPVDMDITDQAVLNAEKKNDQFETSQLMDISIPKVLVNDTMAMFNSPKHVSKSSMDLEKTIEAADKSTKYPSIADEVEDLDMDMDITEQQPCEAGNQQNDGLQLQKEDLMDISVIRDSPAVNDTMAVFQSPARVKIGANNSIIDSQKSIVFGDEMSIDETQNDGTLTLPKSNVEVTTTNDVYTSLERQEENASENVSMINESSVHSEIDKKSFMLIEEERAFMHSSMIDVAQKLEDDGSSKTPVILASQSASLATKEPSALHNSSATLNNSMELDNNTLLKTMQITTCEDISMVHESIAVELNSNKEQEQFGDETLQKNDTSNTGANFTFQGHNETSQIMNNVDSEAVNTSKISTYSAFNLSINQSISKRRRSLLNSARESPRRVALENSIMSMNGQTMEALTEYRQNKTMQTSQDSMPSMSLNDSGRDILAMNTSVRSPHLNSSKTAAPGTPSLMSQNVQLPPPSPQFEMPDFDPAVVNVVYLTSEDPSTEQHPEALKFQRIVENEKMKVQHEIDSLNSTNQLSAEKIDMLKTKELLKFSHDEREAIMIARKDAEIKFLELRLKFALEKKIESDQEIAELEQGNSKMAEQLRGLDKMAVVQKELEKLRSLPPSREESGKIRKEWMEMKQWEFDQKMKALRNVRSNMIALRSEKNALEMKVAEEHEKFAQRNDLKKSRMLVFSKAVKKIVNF
Chain of C. elegans KMN network containing KNL-1SD and the NDC-80SD complex (Q17635 whole entry, looked up): as the sequence (Q17635 whole entry, looked up) above
Chain of C. elegans KMN network containing KNL-1SD and the NDC-80SD complex (P34278 whole entry, looked up): as the sequence (P34278 whole entry, looked up) above
Chain of microtubules (P68363 whole entry, chain 1 of 2): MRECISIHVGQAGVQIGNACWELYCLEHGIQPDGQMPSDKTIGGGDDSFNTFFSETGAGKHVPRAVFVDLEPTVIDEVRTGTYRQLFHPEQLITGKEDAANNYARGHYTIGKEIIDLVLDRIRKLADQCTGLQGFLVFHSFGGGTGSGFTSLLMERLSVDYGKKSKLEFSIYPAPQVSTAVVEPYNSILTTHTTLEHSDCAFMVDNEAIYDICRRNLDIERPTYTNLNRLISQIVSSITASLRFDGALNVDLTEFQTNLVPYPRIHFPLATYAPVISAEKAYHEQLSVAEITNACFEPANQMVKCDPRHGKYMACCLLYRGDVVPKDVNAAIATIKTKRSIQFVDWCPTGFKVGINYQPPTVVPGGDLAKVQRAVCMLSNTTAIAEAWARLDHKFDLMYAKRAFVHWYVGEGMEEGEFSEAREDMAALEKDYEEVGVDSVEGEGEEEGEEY
Chain of microtubules (A8K068 whole entry, chain 2 of 2, further chain): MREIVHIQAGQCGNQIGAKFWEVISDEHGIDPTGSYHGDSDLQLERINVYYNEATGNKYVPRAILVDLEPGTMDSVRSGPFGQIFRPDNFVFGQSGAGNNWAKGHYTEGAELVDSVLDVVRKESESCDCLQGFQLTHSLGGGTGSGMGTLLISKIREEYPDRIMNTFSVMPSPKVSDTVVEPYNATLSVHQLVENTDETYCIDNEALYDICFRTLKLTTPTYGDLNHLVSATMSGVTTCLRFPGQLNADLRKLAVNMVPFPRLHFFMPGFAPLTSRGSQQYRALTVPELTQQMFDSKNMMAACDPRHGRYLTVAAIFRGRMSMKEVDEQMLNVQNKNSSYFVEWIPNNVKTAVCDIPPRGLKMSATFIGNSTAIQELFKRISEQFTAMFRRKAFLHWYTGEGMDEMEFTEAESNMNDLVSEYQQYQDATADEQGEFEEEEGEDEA

| Kd [µM] | Substance |
| --- | --- |
| 4.9 | C. elegans KMN network containing KNL-1SD and the NDC-80SD complex (from UniProt P34278 1-1010; Q17635 1-590) |
| 2.1 | C. elegans KMN network containing KNL-1SD (from UniProt P34278 1-1010; Q17635 1-590) (complex) |
| 5.3 | C. elegans KMN network containing KNL-1SD and the MIS-12SD complex (from UniProt P34278 1-1010; Q17635 1-590) |
